Assay results: patent US20220009987A9, “HUMAN RESISTIN COMPOSITIONS AND METHODS OF TREATING TLR4-MEDIATED DISEASE AND INFECTION” (THE REGENTS OF THE UNIVERSITY OF CALIFORNIA, priority 2017, published 2022)

Experiments:
TLR4 [1] = target: T1, TLR4 (Mus musculus, UniProt Q9QUK6); assay: hRetn cellular binding assay on dissociated lung cells from Nb-infected Tlr4+/+ or Tlr4−/− mice; type: cell-based; conditions: Ly6C+CD11b+ lung cells, Nb-infected mice
T1 construct: from tissue; host or cells: dissociated lung cells (monocytes, alveolar macrophages, neutrophils) of day 7 Nb-infected mice
T1 sequence (Q9QUK6 26-835): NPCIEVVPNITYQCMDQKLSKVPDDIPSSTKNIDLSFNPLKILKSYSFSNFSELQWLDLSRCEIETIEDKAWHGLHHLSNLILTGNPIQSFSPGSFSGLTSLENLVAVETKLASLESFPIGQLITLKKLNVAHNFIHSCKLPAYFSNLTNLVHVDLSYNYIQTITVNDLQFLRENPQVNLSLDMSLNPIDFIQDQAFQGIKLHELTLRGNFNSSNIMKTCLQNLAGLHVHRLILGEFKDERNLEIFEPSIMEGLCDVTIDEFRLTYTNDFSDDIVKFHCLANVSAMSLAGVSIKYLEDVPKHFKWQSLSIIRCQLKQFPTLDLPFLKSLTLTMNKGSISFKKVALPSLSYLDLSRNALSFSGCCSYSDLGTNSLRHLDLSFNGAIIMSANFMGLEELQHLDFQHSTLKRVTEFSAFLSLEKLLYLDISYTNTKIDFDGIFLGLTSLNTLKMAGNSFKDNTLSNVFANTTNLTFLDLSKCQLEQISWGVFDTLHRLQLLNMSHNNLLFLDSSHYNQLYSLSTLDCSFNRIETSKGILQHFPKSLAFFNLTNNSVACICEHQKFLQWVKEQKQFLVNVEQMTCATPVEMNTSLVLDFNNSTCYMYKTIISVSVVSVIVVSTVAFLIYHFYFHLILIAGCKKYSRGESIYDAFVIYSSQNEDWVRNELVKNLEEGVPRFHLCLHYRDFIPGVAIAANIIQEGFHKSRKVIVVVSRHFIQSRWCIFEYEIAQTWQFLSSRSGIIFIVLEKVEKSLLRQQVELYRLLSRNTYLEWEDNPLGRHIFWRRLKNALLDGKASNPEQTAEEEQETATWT
Description: (§1) Binding Assay and Flow Cytometry. Single cell suspension of lung tissue was prepared and hRetn binding was measured as previously described in Jang et al., 2015, supra. Briefly, dissociated lung cells were incubated for 1 hour at 4° C. with 0.5 μg recombinant hResistin (Peprotech) or PBS, followed by 2× wash in FACS buffer, incubation with Fc block (5 μg/mL αCD16/32 and 10 μg/mL purified rat IgG1, 5 min at 4° C.). Cells were stained with biotinylated α-hRetn (Peprotech, 30 min at 4° C.) followed by detection with BV605-conjugated streptavidin (BD) and surface marker antibodies. To collect peritoneal exudate cells (PECs), the peritoneal cavity was washed and PECs recovered in 5 mL ice cold PBS. Surface marker antibodies were: F4/80 (clone A3-1), SiglecF (clone E50-2440), CD4 (clone RM4-5), Ly6C (HK1.4), CD11b (clone M1/70), CD11c (clone N418), Ly6G (clone 1A8), MHCII (clone M5/114.15.2) and CD3e (clone 145-2C11), CD115 (clone AFS98), purchased from Affymetrix, BD Biosciences or Biolegend. Cell populations were determined as follows: peritoneal macrophage (F4/80+CD11b+), neutrophils (Ly6G+CD11b+), eosinophils (SiglecF+CD11c−) and monocyte (Ly6C+CD11b+), alveolar macrophages (F4/80+CD11c+). For flow cytometric analysis, all samples were run on the BD LSRII and analyzed on FlowJo (v10).

TLR4 [2] = assay: as above; type: cell-based, mouse
Description: as §1

human CAP1 = human CAP1 (Homo sapiens, UniProt Q01518); assay: Pull-down assay with His-tagged human CAP1; type: binding; conditions: nickel-NTA agarose beads, anti-hRetn blot
Description: Pull-down Assay. 1 μg/ml protein His-tagged MBP, human TLR4 and human CAP1 were added to nickel-nitrilotriacetic acid-agarose beads (Invitrogen) in binding buffer (50 mM NaH2PO4, 500 mM NaCl, 10 mM Imidazole, pH 8.0) and mixed for 1 hour at 4° C., followed by washing and 1 h incubation at 4° C. with hRetn (E. coli-derived, Peprotech or 293T cell-derived, LifeSpan Biosciences) in binding buffer. Beads were washed in wash buffer (50 mM NaH2PO4, 500 mM NaCl, 20 mM Imidazole, pH 8.0), and complex protein eluted with elution buffer (50 mM NaH2PO4, 500 mM NaCl, 250 mM Imidazole, pH 6.0). His-MBP, His-TLR4 and His-CAP1 were detected by anti-His antibody (Abcam), and hRetn was detected by anti-hRetn antibody (donated by Mitchell Lazar) by Western Blot. For the N-peptide binding experiment, 1 μg/ml His-tagged human TLR4 with 500 ng/ml N-peptide or 10% TFE control was added to the beads in binding buffer and mixed for 30 min at 4° C., followed by co-immunoprecipitation using 1 μg/ml Flag-hRetn (LifeSpan Biosciences), anti-His or anti-Flag (Sigma).

human CAP1, sequence (Q01518 whole entry): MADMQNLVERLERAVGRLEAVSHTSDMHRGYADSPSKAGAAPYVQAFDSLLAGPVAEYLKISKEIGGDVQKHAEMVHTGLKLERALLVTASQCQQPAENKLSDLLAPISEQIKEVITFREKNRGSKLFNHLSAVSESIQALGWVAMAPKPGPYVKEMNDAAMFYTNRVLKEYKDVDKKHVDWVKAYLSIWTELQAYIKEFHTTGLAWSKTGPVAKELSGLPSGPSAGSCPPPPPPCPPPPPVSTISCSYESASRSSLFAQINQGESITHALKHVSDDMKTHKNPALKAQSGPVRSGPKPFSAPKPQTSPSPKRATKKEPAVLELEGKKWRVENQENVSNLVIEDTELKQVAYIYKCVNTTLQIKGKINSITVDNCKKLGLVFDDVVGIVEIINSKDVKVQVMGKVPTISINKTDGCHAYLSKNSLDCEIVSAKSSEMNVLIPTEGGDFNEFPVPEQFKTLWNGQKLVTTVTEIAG

B1: hRetn: human resistin protein (hRetn) having an amino acid sequence of SEQ ID NO: 1; recombinant, E. coli-derived or 293T cell-derived (protein, listed as Homo sapiens)
chain: MKALCLLLLPVLGLLVSSKTLCSMEEAINERIQEVAGSLIFRAISSIGLECQSVTSRGDLATCPRGFAVTGCTCGSACGSWDVRAETTCHCQCAGMDWTGARCCRVQP
TLR4 [1]
  hRetn binding to Tlr4+/+ monocytes: able to bind hRetn
TLR4 [2]; F4/80+CD11c+ lung cells, Tlr4+/+ vs Tlr4−/−
  hRetn binding to alveolar macrophages: TLR4-dependent binding
TLR4 [2]; Ly6C+CD11b+ lung cells, Nb-infected mice
  hRetn binding to Tlr4−/− monocytes: significantly abrogated
TLR4 [2]; Ly6G+CD11b+ lung cells, Tlr4−/−
  hRetn binding to neutrophils in the absence of TLR4: not noticeably affected
TLR4 [2]; lung cells, Nb-infected mice
  frequency of hRetn-bound cells in monocytes: 15%
  frequency of hRetn-bound cells in neutrophils: 8%
Human CAP1
  hRetn in pull-down elution with his-CAP1 (Western blot): not his-CAP1
